Legend:
[1] = target: Notch 1-3 NRR domain swap chimera: C of Notch1; A, B, hd1, hd2 of Notch3 (row 6, unnamed on the sheet) (human); assay: ELISA: NRR-Fc protein coated at 1 ug/ml, antibody applied at 5 ug/ml, goat anti-human Fc-HRP, TMB, O.D. 450 nM
[2] = target: Notch 1-3 NRR domain swap chimera: B of Notch1; A, C, hd1, hd2 of Notch3 (row 5, unnamed on the sheet) (human); assay: as above

O.D. 450 nM (ELISA, relative binding capacity) [1]: 0.8
O.D. 450 nM (ELISA, relative binding capacity) [2]: 2.37
B1: rat-human chimeric antibody 75 (ch75) (antibody, V domains shown)
VH: QVKLLQSGAALVKPGASVKMSCKASGYAFTDYWVTWVKQSHGKSLEWIGEISPNSGGTNFNEKFKGKATLTVDKSTSTAYMELSRLTSEDSAIYYCTRGEIRYNWFAYWGQGTLVTVSS
VL: NIVMTQSPKSMSISVGDRVTMNCKASQNVGNNIAWYQQKPGQSPKLLIYYASNRYTGVPDRFTGGGYGTDFTLTINSMQAEDAAFYYCQRLYNSPFTFGSGTKLEIK
